Data as given in patent US20240279318A1 (NANJING LEGEND BIOTECH, published 2024).
Where a chain is given by its changes, count along the chain named. In names and notes the source's numbering stands. Read-outs that look alike come from different tables or passages of the source.

B1: AS179723 VL1g1VH1g1 scFv-mIgG2aFc (Fc fusion, not shown: a dimerising Fc or GST)
scFv: QSVLTQPPSASGTPGQRVTISCSGSSNNIGGNYVNWYQQLPGTAPKLLIYDNKNRPSGVPDRFSGSKSGTSASLAISGLQSEDEADYYCASWDDSLSAVVFGGGTKLTVLGGGGSGGGGSGGGGSEVQLVESGGGLVQPGGSLRLSCAASGFTFLNYAMSWVRQAPGKGLEWVSSNSGAGSTYYADSVKGRFTISRDNSKNTLYLQMNSLRAEDTAVYYCAKGTNVGSWSSLHYWGQGTLVTVSS
B2: AS179723 VL1g1VH1g1-N73Y scFv-mIgG2aFc (Fc fusion, not shown: a dimerising Fc or GST)
chain: B1 scFv with N198Y
notes: Humanized
B3: AS179723 VL1VH1g1 scFv-mIgG2aFc (Fc fusion, not shown: a dimerising Fc or GST)
scFv: B1 scFv with S23T
B4: AS179732 VL1g1VH1g1 scFv-mIgG2aFc (Fc fusion, not shown: a dimerising Fc or GST; small tags and cut ends)
scFv: B1 scFv with N27S, K53S, P56A, A98G, V99A
B5: AS179732 VL1g1VH1 scFv-mIgG2aFc (Fc fusion, not shown: a dimerising Fc or GST; small tags and cut ends)
scFv: B1 scFv with N27S, K53S, P56A, A98G, V99A, A185S
B6: AS179732 VL1VH1 scFv-mIgG2aFc (Fc fusion, not shown: a dimerising Fc or GST)
scFv: B1 scFv with S23T, N27S, K53S, P56A, A98G, V99A, A185S
B7: AS179732 VL1VH1g1 scFv-mIgG2aFc (Fc fusion, not shown: a dimerising Fc or GST; small tags and cut ends)
scFv: B1 scFv with S23T, N27S, K53S, P56A, A98G, V99A
B8: AS179723 VL1g1VH1 scFv-mIgG2aFc (Fc fusion, not shown: a dimerising Fc or GST)
scFv: B1 scFv with A185S
B9: AS179723 VL1VH1 scFv-mIgG2aFc (Fc fusion, not shown: a dimerising Fc or GST)
scFv: B1 scFv with S23T, A185S
B10: AS170036 VL1VH1-VHG56N (scFv)
scFv: QSALTQPRSVSGSPGQSVTISCAGTSSDVGSENYVSWYQQHPGKAPKLMIYQVNKRASGVPDRFSGSKSGNTASLTISGLQAEDEADYYCASYRSSDHNIVFGGGTKLTVLGGGGSGGGGSGGGGSEVQLVESGGGLVQPGGSLRLSCAASGFTFSSYAMSWVRQAPGKGLEWVSTINSGTNSPYYADSVKGRFTISRDNSKNTLYLQMNSLRAEDTAVYYCAKNFFDGSWFLGPPAMDYWGQGTLVTVSSHHHHHH
B11: AS170036 VL1VH1-VHS57M (scFv)
scFv: B10 scFv with N182G, S183M
B12: AS170036 VL1VH1-VHG108A (scFv)
scFv: B10 scFv with N182G, G234A
B13: AS170036 VL1VH1-VHG56Y (scFv)
scFv: B10 scFv with N182Y
B14: AS170036 VL1VH1-VHG108S (scFv)
scFv: B10 scFv with N182G, G234S
B15: AS170036 VL1VH1-VHS57K (scFv)
scFv: B10 scFv with N182G, S183K
B16: AS170036 VL1VH1-VHS57H (scFv)
scFv: B10 scFv with N182G, S183H
B17: AS170036 VL1VH1-VHG108D (scFv)
scFv: B10 scFv with N182G, G234D

Assays:
[1] = molecular target: T1, AFP158/HLA-A*02:01 complex (human); assay: SPR, scFv-mIgG2aFc from supernatant captured, complex as analyte
T1 construct: biotinylated on the BSP by BirA for ELISA and panning; also called biotinylated AFP158/HLA-A*02:01 complex; Bio-AFP158
Description: (§1) The binding affinity between selected antibodies and AFP158/HLA-A*02:01 complex was determined by surface plasmon resonance (SPR) on a BIAcore T200 instrument (GE Healthcare). The experiment was carried out as follows. The purified sdAb/scFv-mIgG2aFc protein were captured through mIgG2a-Fc onto the sensorchip. […] On-rate (kₐ) and off-rate (kd) were calculated based on association and dissociation curve, and were used to estimate the equilibrium dissociation constant (KD).
(§2) Humanized heavy chains and light chains were combined, and used to produce a series of humanized antibodies. These antibodies were synthesized as scFv-mIgG2aFc and transiently produced using HEK293 cells. The antibodies in the supernatant were subjected to SPR affinity assessment.

[2] = molecular target: T1, AFP158/HLA-A*02:01 complex; assay: as above; remark: listed apart in the source
Description: as §1, §2

[3] = molecular target: ATG9A peptide/HLA-A*02:01 complex (recombinant) (human); assay: SPR
[4] = molecular target: BRCA2 peptide/HLA-A*02:01 complex (recombinant) (human); assay: SPR
[5] = molecular target: CDC14A peptide/HLA-A*02:01 complex (recombinant) (human); assay: SPR
[6] = molecular target: NR2E1 peptide/HLA-A*02:01 complex (recombinant) (human); assay: SPR
[7] = molecular target: OR1I1 peptide/HLA-A*02:01 complex (recombinant) (human); assay: SPR
[8] = molecular target: OR51B6 peptide/HLA-A*02:01 complex (recombinant) (human); assay: SPR
[9] = molecular target: PTP4A1 peptide/HLA-A*02:01 complex (recombinant) (human); assay: SPR
[10] = molecular target: RP1 peptide/HLA-A*02:01 complex (recombinant) (human, UniProt P16213 21-119 (Pongo pygmaeus entry)); assay: SPR
[11] = molecular target: RCL1 peptide/HLA-A*02:01 complex (recombinant) (human, UniProt P16213 21-119 (Pongo pygmaeus entry)); assay: SPR
[12] = molecular target: ZNF566 peptide/HLA-A*02:01 complex (recombinant) (human); assay: SPR
[13] = molecular target: T1, AFP158/HLA-A*02:01 complex; assay: SPR; vs AS170036 VL1VH1
[14] = molecular target: T1, AFP158/HLA-A*02:01 complex; assay: SPR; vs AS170036 VL1VH1; remark: listed apart in the source
Description: (§3) The experiment was carried out as follows. The crude scFv protein were captured onto the sensorchip. Different concentrations (320, 160, 40 nM) of AFP158/HLA-A*02:01 complex flowed over the sensorchip surface, and were allowed to bind the antibody fragment for 100 s followed by injection of the running buffer to allow dissociation of the complex. On-rate (kd) and off-rate (kd) were calculated based on association and dissociation curve, and were used to estimate the equilibrium dissociation constant (KD).

[15] = molecular target: T1, AFP158/HLA-A*02:01 complex; assay: SPR, crude scFv captured;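 further: Peptide–MHC complex flowed at several concentrations over sensorchip-captured scFv, Kd derived from on- and off-rates obtained from the association and dissociation curves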
Description: as §3

Kd [1] | koff [1] | kon [1] | Kd [2] | koff [2] | kon [2] | binding result [3] | binding result [4] | binding result [5] | binding result [6] | binding result [7] | binding result [8] | binding result [9] | binding result [10] | binding result [11] | binding result [12] | Affinity increase [13] | Affinity increase [14] | Kd [15] | Binder
320 nM | 0.029 s⁻¹ | 91000 M⁻¹ s⁻¹ | – | – | – | – | – | – | – | – | – | – | – | – | – | – | – | – | B1
56 nM | – | – | – | – | – | – | – | – | – | – | – | – | – | – | – | – | – | – | B2
310 nM | 0.03 s⁻¹ | 99000 M⁻¹ s⁻¹ | – | – | – | – | – | – | – | – | – | – | – | – | – | – | – | – | B3
– | – | – | 450 nM | 0.057 s⁻¹ | 130000 M⁻¹ s⁻¹ | – | – | – | – | – | – | – | – | – | – | – | – | – | B4
– | – | – | 450 nM | 0.056 s⁻¹ | 120000 M⁻¹ s⁻¹ | – | – | – | – | – | – | – | – | – | – | – | – | – | B5
– | – | – | 440 nM | 0.056 s⁻¹ | 130000 M⁻¹ s⁻¹ | – | – | – | – | – | – | – | – | – | – | – | – | – | B6
– | – | – | 520 nM | 0.065 s⁻¹ | 130000 M⁻¹ s⁻¹ | – | – | – | – | – | – | – | – | – | – | – | – | – | B7
360 nM | 0.034 s⁻¹ | 93000 M⁻¹ s⁻¹ | – | – | – | – | – | – | – | – | – | – | – | – | – | – | – | – | B8
320 nM | 0.031 s⁻¹ | 98000 M⁻¹ s⁻¹ | – | – | – | – | – | – | – | – | – | – | – | – | – | – | – | – | B9
– | – | – | – | – | – | no binding (tested: all below 3.5 RU) | no binding (tested: all below 3.5 RU) | no binding (tested: all below 3.5 RU) | no binding (tested: all below 3.5 RU) | no binding (tested: all below 3.5 RU) | no binding (tested: all below 3.5 RU) | no binding (tested: all below 3.5 RU) | no binding (tested: all below 3.5 RU) | no binding (tested: all below 3.5 RU) | no binding (tested: all below 3.5 RU) | > 2 fold | 2.5 fold | 92 nM | B10
– | – | – | – | – | – | no binding (tested: all below 3.5 RU) | no binding (tested: all below 3.5 RU) | no binding (tested: all below 3.5 RU) | no binding (tested: all below 3.5 RU) | no binding (tested: all below 3.5 RU) | no binding (tested: all below 3.5 RU) | no binding (tested: all below 3.5 RU) | no binding (tested: all below 3.5 RU) | no binding (tested: all below 3.5 RU) | no binding (tested: all below 3.5 RU) | > 2 fold | 2.7 fold | 90 nM | B11
– | – | – | – | – | – | no binding (tested: all below 3.5 RU) | no binding (tested: all below 3.5 RU) | no binding (tested: all below 3.5 RU) | no binding (tested: all below 3.5 RU) | no binding (tested: all below 3.5 RU) | – | no binding (tested: all below 3.5 RU) | no binding (tested: all below 3.5 RU) | no binding (tested: all below 3.5 RU) | no binding (tested: all below 3.5 RU) | > 2 fold | 5.5 fold | 42 nM | B12
– | – | – | – | – | – | no binding (tested: all below 3.5 RU) | no binding (tested: all below 3.5 RU) | no binding (tested: all below 3.5 RU) | no binding (tested: all below 3.5 RU) | no binding (tested: all below 3.5 RU) | no binding (tested: all below 3.5 RU) | no binding (tested: all below 3.5 RU) | no binding (tested: all below 3.5 RU) | no binding (tested: all below 3.5 RU) | no binding (tested: all below 3.5 RU) | > 2 fold | 6.6 fold | 35 nM | B13
– | – | – | – | – | – | no binding (tested: all below 3.5 RU) | no binding (tested: all below 3.5 RU) | no binding (tested: all below 3.5 RU) | no binding (tested: all below 3.5 RU) | no binding (tested: all below 3.5 RU) | no binding (tested: all below 3.5 RU) | no binding (tested: all below 3.5 RU) | no binding (tested: all below 3.5 RU) | no binding (tested: all below 3.5 RU) | no binding (tested: all below 3.5 RU) | > 2 fold | 2.8 fold | 96 nM | B14
– | – | – | – | – | – | no binding (tested: all below 3.5 RU) | no binding (tested: all below 3.5 RU) | no binding (tested: all below 3.5 RU) | no binding (tested: all below 3.5 RU) | no binding (tested: all below 3.5 RU) | no binding (tested: all below 3.5 RU) | no binding (tested: all below 3.5 RU) | no binding (tested: all below 3.5 RU) | no binding (tested: all below 3.5 RU) | no binding (tested: all below 3.5 RU) | > 2 fold | 4.4 fold | 56 nM | B15
– | – | – | – | – | – | no binding (tested: all below 3.5 RU) | no binding (tested: all below 3.5 RU) | no binding (tested: all below 3.5 RU) | no binding (tested: all below 3.5 RU) | no binding (tested: all below 3.5 RU) | no binding (tested: all below 3.5 RU) | no binding (tested: all below 3.5 RU) | no binding (tested: all below 3.5 RU) | no binding (tested: all below 3.5 RU) | no binding (tested: all below 3.5 RU) | > 2 fold | 6.9 fold | 35 nM | B16
– | – | – | – | – | – | no binding (tested: all below 3.5 RU) | no binding (tested: all below 3.5 RU) | no binding (tested: all below 3.5 RU) | no binding (tested: all below 3.5 RU) | no binding (tested: all below 3.5 RU) | – | no binding (tested: all below 3.5 RU) | no binding (tested: all below 3.5 RU) | no binding (tested: all below 3.5 RU) | no binding (tested: all below 3.5 RU) | > 2 fold | 5.5 fold | 42 nM | B17
